In paper PMC12404759, “Efficacy and safety of a therapeutic humanized FSH-blocking antibody in obesity and Alzheimer’s disease models” (The Journal of Clinical Investigation, 2025):

Legend:
[1] = molecular target: T1, follicle-stimulating hormone (FSH) (Homo sapiens (Human)., UniProt P01215;P01225); test: protein thermal shift assay; antibody incubated with FSH; right-shift in melting temperature (Tm) of the ligand-binding Fab domain; details: both partners purified
T1 construct: FSH alpha subunit (FSHα, glycoprotein hormones alpha chain); FSH beta subunit (FSHβ); Heterodimeric hormone

[2] = molecular target: T1, follicle-stimulating hormone (FSH); test: cell-based or functional assay

T1 sequence (P01215 25-116, chain 1 of 2): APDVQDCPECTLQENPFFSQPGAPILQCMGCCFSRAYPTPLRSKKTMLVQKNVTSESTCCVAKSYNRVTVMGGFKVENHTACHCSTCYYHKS
T1 sequence (P01225 19-129, chain 2 of 2): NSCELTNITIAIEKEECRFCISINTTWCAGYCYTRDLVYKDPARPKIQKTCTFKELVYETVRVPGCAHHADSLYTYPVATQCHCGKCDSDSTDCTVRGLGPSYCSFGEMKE

EC50 based on UCP1 activation in dedifferentiated brown adipocytes (Thermo cells) [2]: 3.21 nM
IC50 for cAMP inhibition in SH-SY5Y human neuroblastoma cells [2]: 2.01 nM
IC50 of inhibition of cAMP elevation in response to FSH (5 μg/mL) in KGN human ovarian cancer cells [2]: 0.64 nM
B1: MS-Hu6 (antibody, V domains shown)
VH: QVQLQESGPGLVKPSQTLSLTCTVSGFSITSDYAWNWIRQPPGKGLEWIGSIFSSGSINYNPSLKSRVTISRDTSKNQFSLKLSSVTAADTAVYYCARGGTGTDYWGQGTLVTVSS
VL: DIQMTQSPSSLSASVGDRVTITCRASQDISNYLSWYQQKPGKAIKLLIYYTSRLHSGVPSRFSGSGSGTDYTLTISSLQPEDFATYFCQQGHTLPPTFGGGTKVEIK
notes: humanized VH and CH1; heavy chain of the Fab fragment (Hu6-Fab) deposited as PDB 8VZW; hinge and Fc of the full-length IgG; humanized VL and CL; light chain of the Fab fragment (Hu6-Fab) deposited as PDB 8VZW; the chimeric precursor used human IgK-CL; Full-length humanized IgG derived from the murine antibody Hf2 with the CDRs unaltered; The crystal was of the Fab fragment only
right-shift in Tm of the Fab domain [1]: ~1.8 °C
